Measurements from the nanobody polyreactivity screen of Harvey et al. (2022).

assay: yeast display, Sf9 membrane polyspecificity reagent, FACS + sequencing; frameworks hold sequencing errors
How it was run: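 Nanobodies came from a synthetic yeast display library in Saccharomyces cerevisiae BJ5465, induced with galactose for 36–48 hours and stained for 1 hour at 4 °C with 10% biotinylated, detergent-solubilized Sf9 membrane reagent. Cells were enriched on streptavidin microbeads and then FACS-sorted, with low and high (top ~1%) gates set on anti-HA fluorescence for expression and streptavidin fluorescence for reagent binding. Each polyreactivity label reflects the gate a clone came from. Genes were amplified by colony PCR, sequenced by MiSeq 2 × 250 and filtered by CDR length.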

Q: Which “polyreactivity (PSR sort gate)” value does the source give for “QVQLVESGGGIVQAGGSLRLSCATSGRIFDNNPKGRYRQAPGKESEMVAAIDWRGGTTDYADSVKGRFTISRDNAKNTVYFQMKSLKPEDTAVYYSNARGLNYYGRTFNYWGQGTQVTVSS” here?
A: The value was “low polyreactivity”.

Q: For “QVQLVESGGGLVQAGGSLRLSCAASGFIFRGYAMGWYRQAPGKERELVAAITSSGGDTYYADSVKGRFTISRDNAKNTVYLQMNSLKPEDTAVYYCNARVYASGTEGDYWGQGTQVTVSS”, which “polyreactivity (PSR sort gate)” value is on record?
A: The value was “low polyreactivity”.

Q: Which “polyreactivity (PSR sort gate)” value does the source give for “QVQLVESGGGLVQAGGSLRLSCADSGITFSVYAMGWYRQAPGKERELVASISSGGTSTYYADSVKGRFTISRDNAKNTVYLQMNSQKPEDTAVYYCAAYSYYTGDQYSYDYWGQGTQVTVSS” here?
A: The value was “low polyreactivity”.

Q: For “QVQLVESGGGLVQAGGSLRLSCAASGSTFGSNAIGWYRQAPGKERELVAAISKRGGSTYYADSVKGRFTISRDNAKNTVYLQMNSLKPEDTAVYYCAVAYTPSRRYSAYSADRMDYWGQGTQVTVSS”, which “polyreactivity (PSR sort gate)” value is on record?
A: The value was “high polyreactivity”.

Q: With “QVQLVESGGGLVQAGGSLRLSCAASGSIFVDNAMGWYRQAPGKERELVAVITLRSGSTNYADSVKGRFTISRDNAKNTVYLQMNSLKPEDTAVYYCAADDTYHDYQRDTDDDYWGQGTQVTVSS” as the sequence, how does the “polyreactivity (PSR sort gate)” value read?
A: The value was “low polyreactivity”.

Q: Which “polyreactivity (PSR sort gate)” value does the source give for “QVQLVESGGGLVQAGGSLRLICAASGSIFTYYVMGWYRQAPGKDRDLVAGISRAGSTNYADSVKGRFTISRDNAKNTVYLQMNSLKPEDTAVYYCAKSVWFVKHRKPHDYWGQGTQVTVSS” here?
A: Its value is “low polyreactivity”.

Q: Which “polyreactivity (PSR sort gate)” value does the source give for “QVQLVESGGGLVQAGGSLRLSCAASGSIFPYNAMGWYRQAPGKERELVATISSGGSTNYADSVKGRFTISRDNAKNTVYLQMNSLKPEDTAVYDCAADVIVFYYAPNYWGDIGYGYWGQGTQVTVSS” here?
A: The value was “low polyreactivity”.

Q: Which “polyreactivity (PSR sort gate)” value does the source give for “QVQLVESGGGLVQAGGSLRLSCAASGITFRDNGMGWYRQAPGKESELVAAITSGGSTYYADSVKGRFTISRDNAKNTVYLQMNSLKPEDTAVYYCAAKRIKRRGWRQLSWYDSWGQGTQVTVSS” here?
A: The value was “high polyreactivity”.

Q: With “QVQLVESGGGLVQAGGSLRLSCAASGFIFNVNAMGWYRQAPGKERELVAAITGGGGSTYYADSVKGRFTISRDNAKNTVYLQMNSLKPEDTAVYYCARGRTIRSSRTGGSWGQGTQVTVSS” as the sequence, how does the “polyreactivity (PSR sort gate)” value read?
A: The value was “high polyreactivity”.

Q: Which “polyreactivity (PSR sort gate)” value does the source give for “QVQLVESGGGLVQAGGSLRLSCAASGFILQYNAMGWYRQAPGKERELVAAITRSGVSTYYADSVKGRFTISRDNAKNTVYLQMNSLKPEDTAVYYCAATGGDRYEAYYYWGQGTQVTVSS” here?
A: The value was “low polyreactivity”.

Q: Which “polyreactivity (PSR sort gate)” value does the source give for “QVQLVESGGGLVQAGGSLRLSCAASGNTFGTYVMGWYRPAPGKERELVAAISQSGGSTDYADSVKGRFTISRDNAKYTVYLQMNSLKPEETAVYYCAKVTWGTVWYRSPSEYDYWGQGTQVTVSS” here?
A: The value was “low polyreactivity”.

Q: Which “polyreactivity (PSR sort gate)” value does the source give for “KVQLVESGGGLVQAGGSLRLTCAASGSTFYIYAMGWYRPAPGKERELVATISSTGSTHYADSVKGRFTISRDNAKNTVFLQMNSLKPEDTAGYYCNPVYFGRYSRRDHWGQGTQVTVSS” here?
A: The value was “high polyreactivity”.

Q: Which “polyreactivity (PSR sort gate)” value does the source give for “QVQLVESGGGLFHAGGSLRLSCAASGIIFGGYTIGWYRQAPGKERELVAAISWSGVGTYYADSVKGRFTISRDNAKNTVYLQMNSLKPDDTAVYYCAAWAYYSDDDEYWGQGTQVTVSS” here?
A: Its value is “high polyreactivity”.

Q: With “QVQLVEAGGGLVQAGGSLRLSCAASGGIFLPYAMGWYRQAPGKERELVAGITSVGSTYADSVKGRFTISRDNAKNTVYLQMNSLKPEDTAVYYCNADIYFVEYDYWGQGTQVTVSS” as the sequence, how does the “polyreactivity (PSR sort gate)” value read?
A: The value was “low polyreactivity”.

Q: With “QVQLVESGGGLVQAGGSLRLSCAASGNTFDGYDMGWYRQAPGKERELVAAITNTGASTYYADSVKGRFTISRDNAKNTVYLQMNSLKPEDTAVYYCNAQDSYPEDRHGMSYWGQGTQVTVSS” as the sequence, how does the “polyreactivity (PSR sort gate)” value read?
A: Its value is “low polyreactivity”.

Q: For “QVQLVESGGGLVQAGGSLRLSCAASGGIFGGYAMGWYRQAPGKEGELVAVITSGGSTYYADSVKGRFTISRDNAKNTVYLQMNSLKPEDTAVYYCAADGNSYSYSTYDYWGQGTQVTLSS”, which “polyreactivity (PSR sort gate)” value is on record?
A: Its value is “low polyreactivity”.

Q: For “QVQLVESGGGLVQAGGSLRLSCAASGRTFTYNAMGWYRQAPGKDRELVARISFSGSSTYYADSVKGRFTISRDNAKNTVYLQMNSLKPEDTAVYYCATEAPYYIGGRYRYQRYDYWGQGTQVTVSS”, which “polyreactivity (PSR sort gate)” value is on record?
A: Its value is “high polyreactivity”.

Q: For “QLQLVESGGGLVQAGGSLRLSCAATGSTFYDNAMGWYRQAHGKERELVARIRWSGVRTYYADSVKGRFTISRDNAKNTVYLQMNSLKPEDTAVYYCAAGRPRPHWWSLDYYYWGQGTQVTVSS”, which “polyreactivity (PSR sort gate)” value is on record?
A: Its value is “low polyreactivity”.

Q: For “QVQLVESGGGLVQAGGSLRLSCAASGITFVWYDMGWYRQAPGKEREFVAVISKRGGSTYYADSVKGRFTISRDNAKNTVYLQMNSLKPEDTAVYYCAASYNLYRRYYYWGQGTQVTVSS”, which “polyreactivity (PSR sort gate)” value is on record?
A: Its value is “high polyreactivity”.

Q: Which “polyreactivity (PSR sort gate)” value does the source give for “QVQLVESGGGLVHAGGSLRLSCAASGRIFTSYVMGWYRQAPAKERELVAAITRSGGSTYYADSVKGRFTISRDNAKNTVYLQMISLKPEDTAVYYCNALTRRQKGGEGGGYWGQGTQVTVSS” here?
A: Its value is “high polyreactivity”.

Q: With “QVQLVESGGGLVQAGGSLRLSCAASGSIFRRYTMGWYRQAPGKERELVAAISRVGNTNYADSVKGRFTISRDNAKNTVYLQMNSLKPEDTAVYYCAARAIGYRYTPGLNYWGQGTQVTVSS” as the sequence, how does the “polyreactivity (PSR sort gate)” value read?
A: Its value is “high polyreactivity”.

Q: With “QVQLVESGGGLVQAGGSLRISCAASGFIFTGTALGWYRQAPGKERELVAAITWSGGRTYYADSVKGRFTISRDNAKNTVYLQMNSLKPEDTAVYYCNVYFSIAQRYVGGLIAHDNYWGQGTQVTVSS” as the sequence, how does the “polyreactivity (PSR sort gate)” value read?
A: The value was “high polyreactivity”.

Q: With “QVQLVESGGGLVQAGGSLRLSCAASGSIFDHNAMGWYRQAPGKEREFFARITSSGGGTYYADSVKGRFTISRDNAKNTVYLQMNSLKPEDTAVYYCAKTYYRQGARYPTMFYYWGQGTQVTVSS” as the sequence, how does the “polyreactivity (PSR sort gate)” value read?
A: The value was “low polyreactivity”.

Q: With “QDQLVESGGGLVQAGGSLRLSCAASGRTFGTNARGWYRQAPGKERELVAGINYSDGSTYYADSVKGRFTISRDNAKNTVYLQMNSLKPEVTAVYYCAADPGWAWWELYYWGQGTQVTVSS” as the sequence, how does the “polyreactivity (PSR sort gate)” value read?
A: Its value is “low polyreactivity”.

Q: With “QVQLVESGGGLVQAGGSLRLSCAASGFTFWFNAMGWYRQAPGKEREFVATISYSGASTYYADSVKGRFTISRDNAKNTVYLQMNSLKPEDTAVYYCAAANYDFYAFDSTYRYNYWGQGTQVTVSS” as the sequence, how does the “polyreactivity (PSR sort gate)” value read?
A: The value was “low polyreactivity”.

Q: For “QVQLVESGGGLVQAGGSLRLSCAASGSIFYNYAMGWYRQAPGKEREFVAAISRSGGSTYYADSVKGRFTISRDNAKNTVYLQMNSLKPEDSAVYYCAASTRYSAFYPYGYWGQGTQVTVSS”, which “polyreactivity (PSR sort gate)” value is on record?
A: Its value is “high polyreactivity”.

Q: Which “polyreactivity (PSR sort gate)” value does the source give for “QVQLVESGGGLVQAGGSLRLSCAASGGTFTDYAMGWYRQAPGKERELVAAISSVGSTNYADSVKGRFTITRDNAQNTVYLQMNSLNPEDTAVYYCAADVYRYWISEYDDYWGQGTQVNVSS” here?
A: Its value is “low polyreactivity”.

Q: For “QVQLVESGGGLVQAGGSLRLSCAASGSIFFSYAMGWYRQAPGKERELVATITTSGGRTRYADSVKGRFTISRDNAKNTVYLQMNSLKPEETAVYYCAAAPWDAPWSGYEYWGQGTQVTVSS”, which “polyreactivity (PSR sort gate)” value is on record?
A: Its value is “high polyreactivity”.

Q: With “QVQLVESGGGLVQAGGSLRLSCAASGRTWFYAMGWYRQAPGKERELVAVISRSGASTNYADSVKGRFTISRDNAKNTVYLQMNSLKPEDTAVYYCAAGWRYRGGYWYPRLEYGYWGQGTQVTVSS” as the sequence, how does the “polyreactivity (PSR sort gate)” value read?
A: The value was “high polyreactivity”.

Q: With “QVQLVESGGGLVQAGGSLRLSCDASGRTFPDYAIGWYIQAPGKESELVAAISGSGGSTYYADSVKGRFTISRDNAKNTVYLQMNSLKPEDTAVYYCAAEAETLLWYWFPSAVDYWGQGTQVTVSS” as the sequence, how does the “polyreactivity (PSR sort gate)” value read?
A: Its value is “high polyreactivity”.

Q: For “QVQLVESGGGLVQAGGSLRLSCAASGRTFLYNTRGWYRQAPGKERELVATITGSGASTYYADSVKGRFTISRDNAKNTVYLQMNSLKPEDTAVYYCATDNVYAYDYWGQGTQLTVSS”, which “polyreactivity (PSR sort gate)” value is on record?
A: The value was “high polyreactivity”.

Q: With “QVQIVESGGGLVQAGGSLRLSCGASGSTLGWYGMGWYRQAPGKERELVATISESGGSTYYADSVKGRFTISRDNAKNTVYLQMNSLKPEDTAVYYCAADDRGLISRRGYFYLSYDYWGQGTQVTVSS” as the sequence, how does the “polyreactivity (PSR sort gate)” value read?
A: The value was “low polyreactivity”.

Q: With “QVQLVESGGGLVQAGGSLRLSCAASGRIFNKNAMGWYRQPPGKEREFVAAISRSGGRTYYADSVKGRFTISRDNAKNTVYLQMNSLKPEDPAVYFCAAEYRGVPRVVVDYDYWGQGTQVTVSS” as the sequence, how does the “polyreactivity (PSR sort gate)” value read?
A: Its value is “high polyreactivity”.

Q: For “QVQLVESGGGLVQAGGSLRLSCAASGGIFTYYAMGWYRQAPGKERELVAAISASGGSTYYADSVKGRFTISRDNAKNTVYLQMNSLKPEDTAVYYCAAGLPYGYGYDYWGQGTQVTVSS”, which “polyreactivity (PSR sort gate)” value is on record?
A: Its value is “low polyreactivity”.

Q: For “QVQLVESGGGLVQAGGSLRLSCAASGRTFDDNAMGWYRPAPGKARELVAAISTTGSTNYADSVKGRFTISRDNAQTTVYLQMNSLKPEDTAFYYCAADSTPYVRSGNYDYWGQGTQVTVSS”, which “polyreactivity (PSR sort gate)” value is on record?
A: Its value is “low polyreactivity”.

Q: Which “polyreactivity (PSR sort gate)” value does the source give for “QVQLVESGGGLVQAGGSLRLSCAASGFTFPRNVMGWYRQAPGKERELVAAISRSGSRTSYADSVKGRFTISRDNAKNTVYLQMNSVKPEDTAVYYCATSSGVGGYAAYYYWGQGTQVTVSS” here?
A: The value was “high polyreactivity”.

Q: With “QDQLVESGLGIVQAGGSLRLSCAASGYTFSQYSMGWYRQAPGKERELVAAIDSGSKTKYADSVKGRFTISRDNAKNTVYLQMNSLKPEDSAVYYCAADDSYRSIGGDYWGQGTQVTVSS” as the sequence, how does the “polyreactivity (PSR sort gate)” value read?
A: Its value is “low polyreactivity”.

Q: Which “polyreactivity (PSR sort gate)” value does the source give for “QVQLVESGGGLVQAGGSLRLSCAASGIIFAANAMGWYRQAPGKELELVAAISKNGGITYYADSVKGRFTISRDNAKNTVYLQMNSLIPEDPAVYYCAARWRQTRRYYYWGQGSQVTVSS” here?
A: Its value is “high polyreactivity”.

Q: For “QVQLVESGGGLVQAGGSLRLSCAATGIISQYYAMGWYRQQPGKESELDAAISRSGGSTFYADSVKGRFTISRDNAQNTVYLQMNSLKPEDTAVYYCNAESRFRPYTSRYDYWGQGTQVTVSS”, which “polyreactivity (PSR sort gate)” value is on record?
A: The value was “high polyreactivity”.

Q: With “QVQLVESGGGLVQAGGSLRLSCAASGSTFTYNARGWYRQAPGKERELVAVIRPGGTTNYADSVKGRFTISRDNAKNTVYLQMNSLKPEDTAVYYCAKFFGNYSIYDYWGQGTQVTVSS” as the sequence, how does the “polyreactivity (PSR sort gate)” value read?
A: Its value is “low polyreactivity”.
